Here are results for four molecules from US20250171555A1 (VISTERRA, published 2025).

Substitutions are numbered along the chain they refer to.

For assay [1], the target named is T1, C5aR2 VLP (UniProt Q9P296 1-337). The experiment in a line: ELISA, C5aR2 VLP immobilized at 30 µg/mL, antibody titrated. Background: ELISA stands for enzyme-linked immunosorbent assay.
Assay [2] concerns the target T1, C5aR2 VLP. The experiment in a line: ELISA, C5aR2 VLP immobilized, as in Example 1.

T1 sequence (Q9P296 whole entry): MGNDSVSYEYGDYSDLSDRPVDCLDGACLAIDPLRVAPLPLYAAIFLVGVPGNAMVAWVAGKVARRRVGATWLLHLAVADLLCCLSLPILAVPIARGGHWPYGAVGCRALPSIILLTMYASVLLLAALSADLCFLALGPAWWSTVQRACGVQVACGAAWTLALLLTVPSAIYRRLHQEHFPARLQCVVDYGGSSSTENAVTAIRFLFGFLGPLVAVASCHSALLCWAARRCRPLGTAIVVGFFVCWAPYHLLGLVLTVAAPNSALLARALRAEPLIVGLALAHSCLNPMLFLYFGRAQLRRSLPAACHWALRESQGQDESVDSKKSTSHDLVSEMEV

B1: c2139 (antibody, human IgG4 S228P, kappa)
heavy: not shown
light: DVQMTQSPSSLSASVGDRVTITCRASQSIVHSNGNTYLHWYQQKPGKAPKFLIYKVSNRFSGVPSRFSGSGSGTDFTLTISSLQPEDFATYYCAQYTLVPLTFGQGTKLEIKRTVAAPSVFIFPPSDEQLKSGTASVVCLLNNFYPREAKVQWKVDNALQSGNSQESVTEQDSKDSTYSLSSTLTLSKADYEKHKVYACEVTHQGLSSPVTKSFNRGEC
notes: also called humanized Site II antibody; monospecific C5aR1 antibody
Turning to B1, in assay [1], the binding result is on record as “no binding”.

B2: c2137-e1711 (bispecific antibody, human IgG4 S228P, kappa)
heavy: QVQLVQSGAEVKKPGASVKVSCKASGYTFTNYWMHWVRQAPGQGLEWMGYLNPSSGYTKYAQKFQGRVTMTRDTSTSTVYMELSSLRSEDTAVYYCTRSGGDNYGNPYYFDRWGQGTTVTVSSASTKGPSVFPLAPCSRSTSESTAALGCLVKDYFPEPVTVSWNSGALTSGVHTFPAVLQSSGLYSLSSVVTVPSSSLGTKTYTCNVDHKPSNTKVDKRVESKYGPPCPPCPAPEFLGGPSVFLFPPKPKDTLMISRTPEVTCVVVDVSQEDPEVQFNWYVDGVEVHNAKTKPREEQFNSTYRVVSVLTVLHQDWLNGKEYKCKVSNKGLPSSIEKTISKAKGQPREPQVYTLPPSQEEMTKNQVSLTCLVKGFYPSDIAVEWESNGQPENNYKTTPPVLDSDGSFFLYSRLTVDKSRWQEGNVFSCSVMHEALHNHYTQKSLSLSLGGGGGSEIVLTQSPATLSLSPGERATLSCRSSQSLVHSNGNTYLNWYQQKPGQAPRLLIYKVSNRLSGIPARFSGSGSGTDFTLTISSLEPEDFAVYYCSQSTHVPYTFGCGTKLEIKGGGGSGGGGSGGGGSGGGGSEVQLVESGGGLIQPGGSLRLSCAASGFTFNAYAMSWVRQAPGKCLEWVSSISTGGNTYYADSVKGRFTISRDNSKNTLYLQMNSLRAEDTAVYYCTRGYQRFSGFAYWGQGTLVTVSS
light: B1 light with Y96S
notes: Tetravalent Fab-Fc-linker-scFv; also called humanized biparatopic antibody; biparatopic C5aR1 antibody
Regarding B2, the binding result in assay [1] is “no binding”.

B3: c2139-Fcmod (antibody, human IgG4 S228P, kappa)
heavy: not shown
light: B1 light
notes: also called c2139-Fmod; monospecific antibody with modified Fc domain
As for B3, the binding result in assay [2] is recorded as “no binding”.

B4: c2137-e1711-Fcmod (bispecific antibody, human IgG4 S228P, kappa)
heavy: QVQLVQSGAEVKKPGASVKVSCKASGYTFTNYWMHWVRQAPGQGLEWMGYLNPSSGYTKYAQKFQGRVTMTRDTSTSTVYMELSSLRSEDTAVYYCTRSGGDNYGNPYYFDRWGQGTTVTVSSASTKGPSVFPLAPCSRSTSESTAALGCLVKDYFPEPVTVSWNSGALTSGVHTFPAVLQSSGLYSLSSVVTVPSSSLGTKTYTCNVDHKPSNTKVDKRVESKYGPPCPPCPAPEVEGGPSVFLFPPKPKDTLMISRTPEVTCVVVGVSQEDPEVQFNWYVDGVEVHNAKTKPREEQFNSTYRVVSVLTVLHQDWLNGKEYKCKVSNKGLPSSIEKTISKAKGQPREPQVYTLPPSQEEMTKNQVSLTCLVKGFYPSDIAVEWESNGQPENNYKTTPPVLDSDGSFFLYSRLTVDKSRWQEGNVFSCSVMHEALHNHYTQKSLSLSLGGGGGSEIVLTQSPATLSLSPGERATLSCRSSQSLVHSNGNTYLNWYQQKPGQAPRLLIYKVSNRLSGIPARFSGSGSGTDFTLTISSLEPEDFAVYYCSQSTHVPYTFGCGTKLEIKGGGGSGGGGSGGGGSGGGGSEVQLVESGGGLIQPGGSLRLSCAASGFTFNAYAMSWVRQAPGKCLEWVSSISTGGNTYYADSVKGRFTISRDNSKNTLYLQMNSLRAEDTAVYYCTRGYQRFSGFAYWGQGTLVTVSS
light: B1 light with Y96S
notes: Fab-Fc-linker-scFv; also called biparatopic antibody with modified Fc domain
On to B4, for which the binding result in assay [2] was “no binding”.
